The results in this text go back to patent US20220135701A1 (Genentech, published 2022).

The term Kd denotes a measure of binding affinity in units of concentration.

Holding throughout (experiment): SPR BIAcore T200, Ab captured, 37C
(In general: In SPR one partner is held on a chip, and binding of the other changes the refractive index at the surface.)

Test [1] deals with T1, human MerTK (human, UniProt Q12866 26-499).
T1 construct: also called HuMER
T1 sequence: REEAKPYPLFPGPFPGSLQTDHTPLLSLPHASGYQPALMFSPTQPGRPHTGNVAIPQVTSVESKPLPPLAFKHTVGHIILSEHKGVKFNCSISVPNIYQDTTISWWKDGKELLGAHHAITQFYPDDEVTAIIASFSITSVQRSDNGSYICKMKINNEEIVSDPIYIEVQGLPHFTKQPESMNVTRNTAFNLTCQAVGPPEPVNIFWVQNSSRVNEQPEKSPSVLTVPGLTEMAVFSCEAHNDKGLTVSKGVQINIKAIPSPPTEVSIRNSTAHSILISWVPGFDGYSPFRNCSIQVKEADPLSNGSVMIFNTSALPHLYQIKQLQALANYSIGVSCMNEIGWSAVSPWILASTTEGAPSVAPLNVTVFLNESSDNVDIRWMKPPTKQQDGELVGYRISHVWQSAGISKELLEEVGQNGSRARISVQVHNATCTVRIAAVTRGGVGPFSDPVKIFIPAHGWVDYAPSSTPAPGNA

The target in test [2] is T2, cynomolgus monkey MerTK (cynomolgus monkey, UniProt A0A2K5V1H9 32-505).
T2 construct: Soluble analyte in SPR; also called Cyno MerTK
T2 sequence: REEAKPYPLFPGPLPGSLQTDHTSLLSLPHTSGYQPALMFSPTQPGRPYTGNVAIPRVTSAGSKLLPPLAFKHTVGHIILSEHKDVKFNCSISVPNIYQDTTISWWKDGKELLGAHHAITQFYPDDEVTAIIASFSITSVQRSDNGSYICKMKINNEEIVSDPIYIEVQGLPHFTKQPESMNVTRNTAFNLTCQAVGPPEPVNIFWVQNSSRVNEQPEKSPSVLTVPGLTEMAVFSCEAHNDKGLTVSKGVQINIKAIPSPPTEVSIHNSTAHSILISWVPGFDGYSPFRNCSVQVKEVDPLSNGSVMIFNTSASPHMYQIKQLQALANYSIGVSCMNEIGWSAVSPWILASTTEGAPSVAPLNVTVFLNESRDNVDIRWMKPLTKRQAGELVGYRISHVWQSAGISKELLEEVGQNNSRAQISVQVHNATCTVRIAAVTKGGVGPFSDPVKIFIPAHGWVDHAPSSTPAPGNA

Test [3] has as its target T3, mouse MerTK (mouse, UniProt Q60805 23-496).
T3 construct: also called MuMER
T3 sequence (looked up): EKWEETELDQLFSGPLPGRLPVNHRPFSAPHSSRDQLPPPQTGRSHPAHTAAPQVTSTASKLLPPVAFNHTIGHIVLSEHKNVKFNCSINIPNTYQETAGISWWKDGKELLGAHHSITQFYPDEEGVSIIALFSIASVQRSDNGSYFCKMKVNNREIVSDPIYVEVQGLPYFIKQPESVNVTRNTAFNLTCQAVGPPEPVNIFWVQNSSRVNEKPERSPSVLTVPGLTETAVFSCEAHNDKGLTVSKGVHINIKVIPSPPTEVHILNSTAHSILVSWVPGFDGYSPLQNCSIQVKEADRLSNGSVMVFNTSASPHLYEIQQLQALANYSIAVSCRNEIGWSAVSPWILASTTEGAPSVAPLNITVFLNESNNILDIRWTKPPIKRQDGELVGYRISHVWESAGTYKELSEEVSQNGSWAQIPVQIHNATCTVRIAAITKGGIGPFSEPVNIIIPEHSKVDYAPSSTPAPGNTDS

B1: h10F7.v16 (antibody, V domains shown)
VH: EVQLVESGGGLVQPGGSLRLSCAVSGFSLSGYAMSWVRQAPGKGLEYIGVISSSGSSYYPSWAKGRFTISKDNSKNTLYLQMGSLRAEDMAVYYCARVQFYVGYAVYGYGIIDRLDLWGQGTLVTVSS
VL: DIVLTQSPDSLAVSLGERATINCQSSKSVYNNNWLSWYQQKPGQPPKLLIYRASTLESGVPDRFSGSGSGTDFTLTISSLQAEDVAVYFCAGGYSSSSSANAFGGGTKVEIK
notes: Humanized, human IgG1; also called 10F7 Fully Humanized; 10F7 Humanized polished mAb
Turning to B1, the Kd in test [1] amounted to 4.9 nM; in test [2] it was 2.1 nM; in test [3] it was 1.4 nM.
